Assay results from patent US20260347449 (published 2026).
Residue numbers refer to the chain shown, from its start. Where two headings read alike, the source gives them in different places.

Experiments:
human C3 [1] = target: T1, human C3 (human, UniProt P01024); experiment: BLI
human C5 [2] = target: T2, human C5 (human, UniProt P01031); experiment: ELISA
human C5 [3] = target: T2, human C5; experiment: BLI
human C5 W917S = human C5 W917S (human, UniProt P01031); experiment: BLI
human C3 [4] = target: T1, human C3; experiment: ELISA
human C5 [5] = target: T2, human C5; experiment: BLI; remark: listed apart in the source
human C3 [6] = target: T1, human C3; experiment: BLI; remark: listed apart in the source
human C3 [7] = target: T1, human C3; experiment: BLI; remark: listed apart in the source
cynomolgus C5 = target: T3, cynomolgus C5 (cynomolgus); experiment: BLI
T3 chain: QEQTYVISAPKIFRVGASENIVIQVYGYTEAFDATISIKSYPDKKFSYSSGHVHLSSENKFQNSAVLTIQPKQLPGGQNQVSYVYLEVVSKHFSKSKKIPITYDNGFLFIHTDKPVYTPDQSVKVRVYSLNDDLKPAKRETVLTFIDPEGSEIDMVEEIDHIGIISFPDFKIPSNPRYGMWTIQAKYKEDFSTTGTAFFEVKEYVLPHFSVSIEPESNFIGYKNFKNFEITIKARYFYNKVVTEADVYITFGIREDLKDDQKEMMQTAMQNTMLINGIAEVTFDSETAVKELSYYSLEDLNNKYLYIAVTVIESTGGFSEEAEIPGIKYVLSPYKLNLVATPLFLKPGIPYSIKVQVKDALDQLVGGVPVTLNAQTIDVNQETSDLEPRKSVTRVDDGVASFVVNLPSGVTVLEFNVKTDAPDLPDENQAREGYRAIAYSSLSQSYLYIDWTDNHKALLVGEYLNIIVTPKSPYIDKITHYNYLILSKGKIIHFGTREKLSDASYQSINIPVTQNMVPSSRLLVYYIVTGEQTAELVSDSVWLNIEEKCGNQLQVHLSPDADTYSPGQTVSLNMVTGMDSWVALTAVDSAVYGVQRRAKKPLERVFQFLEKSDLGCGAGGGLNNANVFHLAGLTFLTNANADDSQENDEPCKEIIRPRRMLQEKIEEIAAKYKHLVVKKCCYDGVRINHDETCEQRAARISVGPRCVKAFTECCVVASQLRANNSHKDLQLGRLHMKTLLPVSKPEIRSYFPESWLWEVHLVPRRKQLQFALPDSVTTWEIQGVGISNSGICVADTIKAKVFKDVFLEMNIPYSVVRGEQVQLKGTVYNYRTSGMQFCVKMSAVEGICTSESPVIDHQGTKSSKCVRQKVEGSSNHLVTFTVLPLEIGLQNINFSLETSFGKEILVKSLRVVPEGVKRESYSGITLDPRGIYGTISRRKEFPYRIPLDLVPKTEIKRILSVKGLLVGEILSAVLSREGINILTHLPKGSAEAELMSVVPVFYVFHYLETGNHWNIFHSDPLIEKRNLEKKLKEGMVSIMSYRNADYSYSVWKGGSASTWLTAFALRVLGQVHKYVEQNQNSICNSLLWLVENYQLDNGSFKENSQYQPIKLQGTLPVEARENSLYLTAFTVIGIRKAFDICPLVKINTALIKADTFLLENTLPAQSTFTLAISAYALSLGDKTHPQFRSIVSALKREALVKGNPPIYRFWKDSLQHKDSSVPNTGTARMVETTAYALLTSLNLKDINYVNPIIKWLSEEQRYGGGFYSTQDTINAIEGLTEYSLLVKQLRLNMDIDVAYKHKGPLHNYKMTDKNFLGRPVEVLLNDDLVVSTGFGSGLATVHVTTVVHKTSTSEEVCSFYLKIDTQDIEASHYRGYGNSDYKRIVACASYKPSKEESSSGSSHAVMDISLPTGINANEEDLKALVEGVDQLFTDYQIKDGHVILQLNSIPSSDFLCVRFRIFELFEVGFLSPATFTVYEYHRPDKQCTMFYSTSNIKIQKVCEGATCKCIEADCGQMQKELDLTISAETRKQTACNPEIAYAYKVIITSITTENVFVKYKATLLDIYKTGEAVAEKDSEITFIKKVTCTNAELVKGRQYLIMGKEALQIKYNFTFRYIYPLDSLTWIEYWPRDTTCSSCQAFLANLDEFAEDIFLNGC

human C3 [8] = target: T1, human C3; experiment: BLI, bivalent
human C5 [9] = target: T2, human C5; experiment: BLI; remark: listed apart in the source
human C3 [10] = target: T1, human C3; experiment: BLI; remark: listed apart in the source

B1: C3I3 (antibody, V domains shown)
VH: DVQLVESGGGLVQPGGSLRLSCAASGFTLDNYAIAWFRQAPGKEREGVSCISSSRGSTAYEDSVKGRFTIARDNAKNTVYLQMNSLKPEDTAVYYCAARARGMCREFDYDYWGQGTQVTVSS
Question: B1 was tested. Which Kd (human C3 [1]) did it give?
Answer: The Kd was 17 nM.

B2: C5S12 (antibody, V domains shown)
VH: QVQLQESGGGLVQAGGSLRLSCAASGYIFPSDDMGWYRQAPGKEREFVAAINDGASTYYADSVKGRFTISRDNAKNTVYLQMNSLKPEDTAVYYCAVQLNYYWDYVYWGQGTQVTVSS
Question: Does B2 bind (human C5 [2])?
Answer: Result: no binding

B3: C5S8 (antibody, V domains shown)
VH: QVQLQESGGGLVQAGGSLRLSCAASGNIFDEWDMGWYRQAPGKEREFVAAIDDGASTYYADSVKGRFTISRDNAKNTVYLQMNSLKPEDTAVYYCAARQTYAWDYRYWGQGTQVTVSS
Question: B3 was tested. Which Kd (human C5 [3]) did it give?
Answer: Its Kd is 7 nM.

B4: eculizumab (antibody, V domains shown)
VH: QVQLVQSGAEVKKPGASVKVSCKASGYIFSNYWIQWVRQAPGQGLEWMGEILPGSGSTEYTENFKDRVTMTRDTSTSTVYMELSSLRSEDTAVYYCARYFFGSSPNWYFDVWGQGTLVTVSS
VL: DIQMTQSPSSLSASVGDRVTITCGASENIYGALNWYQQKPGKAPKLLIYGATNLADGVPSRFSGSGSGTDFTLTISSLQPEDFATYYCQNVLNTPLTFGQGTKVEIKR
Question: Does B4 bind (human C5 W917S)?
Answer: Result: no binding

B5: C3I22 (antibody, V domains shown)
VH: DVQLVESGGGLVQPGGSLRLSCTASGFTFGVYAMSWVRQAPGKGLEWVSSIDSGVNTAYADSVKGRFTISRDNAINTVFLQMNSLKPEDTAVYHCALGRESDYEPVTGSWGQGTQVTVSS
Question: B5 was tested. Which Kd (human C3 [1]) did it give?
Answer: The Kd was 3.9 nM.

B6: C3I4 (antibody, V domains shown)
VH: DVQLVESGGGLVQPGGSLRLSCATSGFTLDYYAIGWFRQAPGKEREGVSCITGPDGSTHYADSVKGRFTISRDNAKNTVYLQMNSLKPEDTAVYYCAATAGLYGCGYGMDHWGKGTQVTVSS
Question: How did the Kd (human C3 [1]) turn out when B6 was run?
Answer: The Kd was 27 nM.

B7: C3S10 (antibody, V domains shown)
VH: QVQLQESGGGLVQAGGSLRLSCAASGYISGGSIMGWYRQAPGKEREFVAGINQGSNTYYADSVKGRFTISRDNAKNTVYLQMNSLKPEDTAVYYCAVGGRSYYYHHYWGQGTQVTVSS
Question: Does B7 bind (human C3 [4])?
Answer: Result: no binding

B8: C5S5 (antibody, V domains shown)
VH: QVQLQESGGGLVQAGGSLRLSCAASGTISPYEGMGWYRQAPGKERELVAAIDGGGITYYADSVKGRFTISRDNAKNTVYLQMNSLKPEDTAVYYCAAGIWTLSYYDYWGQGTQVTVSS
Question: B8 was tested. Which Kd (human C5 [3]) did it give?
Answer: The Kd was 13 nM.

B9: C3S6 (antibody, V domains shown)
VH: QVQLQESGGGLVQAGGSLRLSCAASGNIFVGHGMGWYRQAPGKEREFVAAIGYGAITNYADSVKGRFTISRDNAKNTVYLQMNSLKPEDTAVYYCAASSYYPPRYWYWGQGTLVTVSS
Question: Which Kd (human C3 [1]) does the source give for B9 here?
Answer: The Kd was 20 nM.

B10: C3N10.3 (antibody, V domains shown)
VH: EVQLVESGGGLVQAGGSLRLACAASGLTFSPYAMGWFRQAPGKEREFVAGIRWISGNPYYADSVKGRFTISRDNSKNTLYLQMNSLRPEDTAVYSCAAAPLTRSYDYWGQGTLVTVSS
Question: What does the source list for B10?
Answer: binding result (human C5 [5]): no binding; Kd (human C3 [6]): 5.32 nM; Kd (human C3 [7]): 5 nM; binding result (cynomolgus C5): no binding

B11: C3N10.3-Fc (antibody, V domains shown)
VH: B10 VH
Question: B11 was tested. Which Kd (human C3 [8]) did it give?
Answer: The Kd was 3.25 nM.

B12: C3N10 (antibody, V domains shown)
VH: B10 VH with E1D, S75A, L79V, R87K, L113Q
Question: For B12, which Kd (human C3 [1]) is on record?
Answer: The Kd was 7.6 nM.

Question: Does B12 bind (human C5 [5])?
Answer: Result: no binding

Question: And the Kd (human C3 [6])?
Answer: The Kd was 3.64 nM.

Question: Does B12 bind (cynomolgus C5)?
Answer: Result: no binding

B13: C3I8 (designed binder)
chain: DVQLVESGGGLVQPGGSLRLSCATSGFSFGVYDMSWVRQASGKGLEWVSGIDSGSNTAYADSVKVRFTISRDNAKNTLYLQMNNLKPEDTAVYYCALGRETDYIPVTDFRTQGTQVTVSS
Question: How did the Kd (human C3 [1]) turn out when B13 was run?
Answer: Its Kd is 4.8 nM.

B14: C3S3.2 (antibody, V domains shown)
VH: EVQLVESGGGLVQAGGSLRLSCAASGTIFSRNYMGWYRQAPGKERELVAGIGYGSSTNYADSVKGRFTISRDNSKNTLYLQMNSLRPEDTAVYYCAAVPTYRPYYFYWGQGTLVTVSS
Question: Which results are given for B14?
Answer: binding result (human C5 [5]): no binding; Kd (human C3 [6]): 5.83 nM; Kd (human C3 [7]): 6 nM; binding result (cynomolgus C5): no binding

B15: C3S3 (antibody, V domains shown)
VH: B14 VH with E1Q, V5Q, S74A, L78V, R86K, L113Q
Question: Which results are given for B15?
Answer: Kd (human C3 [1]): 23 nM; binding result (human C5 [5]): no binding; Kd (human C3 [6]): 4.97 nM; binding result (cynomolgus C5): no binding

B16: C3S3.2-Fc (antibody, V domains shown)
VH: B14 VH
Question: For B16, which Kd (human C3 [8]) is on record?
Answer: Its Kd is 0.703 nM.

B17: C3S8 (antibody, V domains shown)
VH: QVQLQESGGGLVQAGGSLRLSCAASGTIFPTDRMGWYRQAPGKEREFVATIDLGGTTNYADSVKGRFTISRDNAKNTVYLQMNSLKPEDTAVYYCAAAWEGPSRYGRHRYYSHRYWGQGTQVTVSS
Question: Which Kd (human C3 [1]) does the source give for B17 here?
Answer: Its Kd is 14 nM.

B18: C5S2 (antibody, V domains shown)
VH: QVQLQESGGGLVQAGGSLRLSCAASGNIFHQSDMGWYRQAPGKEREFVAAIDYGTNTYYADSVKGRFTISRDNAKNTVYLQMNSLKPEDTAVYYCAARDTSYWDHVYWGQGTQVTVSS
Question: For B18, which Kd (human C5 [9]) is on record?
Answer: The Kd was 6.29 nM.

Question: And the Kd (human C5 [3])?
Answer: Its Kd is 1.98 nM.

Question: Does B18 bind (human C3 [10])?
Answer: Result: no binding

Question: Does B18 bind (cynomolgus C5)?
Answer: Result: no binding

B19: C3S5 (antibody, V domains shown)
VH: QVQLQESGGGLVQAGGSLRLSCAASGTIFDDESMGWYRQAPGKEREFVASINYGSTTYYADSVKGRFTISRDNAKNTVYLQMNSLKPEDTAVYYCAVGWSTNYDWTLSYYYWGQGTLVTVSS
Question: Does B19 bind (human C3 [4])?
Answer: Result: no binding

B20: C5S1 (antibody, V domains shown)
VH: QVQLQESGGGLVQAGGSLRLSCAASGYISYDDDMGWYRQAPGKEREFVAAIDVGGSTYYADSVKGRFTISRDNAKNTVYLQMNSLKPEDTAVYYCAVRDGYYWDHDYWGQGTQVTVSS
Question: For B20, which Kd (human C5 [3]) is on record?
Answer: The Kd was 9.5 nM.
